19 sequences from the DeepSol protein solubility set can be followed below.

The series in a line: soluble on expression in E. coli; label from the status in PepcDB or PDB records.
Turning to “MIAGATAPSSQHEILIASNLIKKPSTSQNKTPTAQSSSGNNGAADGAPQGYHHHHHHHRHLWWPRTTDHQYWCVLRKNQFAYYKTRDEREAISVIPRFDILNFKISELDGILTVYTPSKDLIFKFPRGQNEKVGMELMHNWKIALEKFLSSPSGNESVTTGSDYDEEEDDDDLIVVDEKAGPSSSKHSCSLTMDEQLSREDKEFYRMFDPRNAEHQVCSGILYTKVKKKKLFNRAKWQKFNVELTNTSFNLYSFKTGKLKKSIKLDKIIDCIELDNNSKMKNDDTNFALITFDERLSFKAANDQDMVDWIINFKSGILIRKKLKAENI”, the “soluble on expression in E. coli” value is “soluble”.

Regarding “MPPRRDLKKILIIGSGPITIGQAAEFDYSGTQAVKALRGAGYRVVLVNSNPATIMTDPELAERTYIEPLDLEHLEGILAREAPDALLPTLGGQTGLNLAMALHEEGILQKYGVELIGAKAEAIRKGEDREAFQEAMQRIGLEVPRGQLVGSVEEGLHFAREVGFPVVVRPSFTLGGTGGGIAHDEAELVEVLSRGLTLSPVHTALVEESVLGWKEFELEVMRDHADTVVIITSIENVDPMGVHTGDSITVAPAQTLSDVEYQRMRDAAKAIIREIGVETGGSNIQFAVDPKTGRQVVIEMNPRVSRSSALASKATGFPIAKIAALLAVGYRLDELPNDITRKTPASFEPTIDYVVVKIPRFAFEKFRPLRNTLGELKDELTTQMKSVGEVMAIGRTFKEALMKALRGLERDVRALAGVRTEELEKKLYPNPDRVYAVMELLRRGMPVEELYQATRIDPWFLHQMKEVVEAEEWLKTHPPKDREDWRFYKGLGLTDRRIGELVGKGEKEVRAERKALGVVPVYKTVDTCAAEFEAYTPYHYSTYELEDEVWPSQKPKVVILGSGPIRIGQGVEFDYATVHAVWALKEAGYETIMVNSNPETVSTDYDTADRLYFEPLTLEDVLNIVEHEKPIGVIATLGGQTPLKLAKGLEEAGVRLLGTPFSAIHQAEDREAFHALCQRLGIPQPEGRVAQSPEEALRLAPEVGFPLLVRPSYVLGGRAMQVVRDEGELKRYLEEVYAPLEERPSILLDRFLEGAVELDVDALSDGQEVMVAGIMEHVERAGVHSGDSATLLPPVHVPEEALKKVRDYTRRLALALGVRGLLNVQYAVVGEEVYVLEANPRASRTVPFVSKAIGVPLAKLAALIAVGKTLKELGVRDLDPVPPYYAAKEVVIPWIKFPGVIPELGPEMRSTGESMGIDQDPYLAYYKAELGAGQRLPLSGRVRFIGEGLEDLKALYQEAGFALTEGEDYDLLISLVPDPELRRAVERGLPFITTREGAWWSLKAILRARESGLRVQSLQDWHQKAPRG”, the “soluble on expression in E. coli” value is given as “soluble”.

Turning to “MAHHHHHHVDDDDKMVPYTVRFTTTARRDLHKLPPRILAAVVEFAFGDLSREPLRVGKPLRRELAGTFSARRGTYRLLYRIDDEHTTVVILRVDHRADIYRR”, the “soluble on expression in E. coli” value was “soluble”.

As to “MSMENFAQLLEESFTLQEMNPGEVITAEVVAIDQNFVTVNAGLKSESLIDVAEFKNAQGEIEVKVGDFVTVTIESVENGFGETKLSREKAKRAADWIALEEAMENGNILSGIINGKVKGGLTVMISSIRAFLPGSLVDVRPVKDTSHFEGKEIEFKVIKLDKKRNNVVVSRRAVLEATLGEERKALLENLQEGSVIKGIVKNITDYGAFVDLGGIDGLLHITDLAWRRVKHPSEVLEVGQEVEAKVLKFDQEKQRVSLGMKQLGEDPWSGLTRRYPQATRLFGKVSNLTDYGAFVEIEQGIEGLVHVSEMDWTNKNVHPSKVVQLGDEVEVMILEIDEGRRRISLGMKQCQANPWEEFAANHNKGDKISGAVKSITDFGVFVGLPGGIDGLVHLSDLSWTESGEEAVRKYKKGEEVEAVVLAIDVEKERISLGIKQLEGDPFGNFISVNDKGSLVKGSVKSVDAKGAVIALSDEVEGYLPASEFAADRVEDLTTKLKEGDEVEAVIVTVDRKNRSIKLSVKAKDAKESREALNSVNAAANANAGTTSLGDLLKAKLSGEQELEHHHHHH”, the “soluble on expression in E. coli” value was “not soluble”.

For the sequence “MTQMKIFVIGAHGQIGKKIVSKLVAQGDQVYAGIRQPEQAEAFEDAGAQPVQFNLMAQPEDLALAFNGMDAIVFAAGSGGQTGYDMTLMIDLDGAVKSMVAAKIAGVKRYVIISAEFTPDRSRWPRALQPYYVAKYYADEWLKNRTQLDYTILQPGTLINDAGTGKVTVNPDVGGEITRDDVATFTVQTLHTPATVGKTIALINGDTPISKAVQQA”, the “soluble on expression in E. coli” value is “not soluble”.

With “MENKTVNQVIHYVYEGGGEAATDHNATVVFSQTITTDKVTGEKTYSDWTADNGDSFASVTSPVIDGYTADQLKVSEMTGITVDTEDISVTVTYTRNQGTIDVTYIDETTGKILEHHHHHH”, the “soluble on expression in E. coli” value is “not soluble”.

With “MGSDKIHHHHHHMTRYQHLATLLAERIEQGLYRHGEKLPSVRSLSQEHGVSISTVQQAYQTLETMKLITPQPRSGYFVAQRKAQPPVPPMTRPVQRPVEITQWDQVLDMLEAHSDSSIVPLSKSTPDVEAPSLKPLWRELSRVVQHNLQTVLGYDLLAGQRVLREQIARLMLDSGSVVTADDIIITSGCHNSMSLALMAVCKPGDIVAVESPCYYGSMQMLRGMGVKVIEIPTDPETGISVEALELALEQWPIKGIILVPNCNNPLGFIMPDARKRAVLSLAQRHDIVIFEDDVYGELATEYPRPRTIHSWDIDGRVLLCSSFSKSIAPGLRVGWVAPGRYHDKLMHMKYAISSFNVPSTQMAAATFVLEGHYHRHIRRMRQIYQRNLALYTCWIREYFPCEICITRPKGGFLLWIELPEQVDMVCVARQLCRMKIQVAAGSIFSASGKYRNCLRINCALPLSETYREALKQIGEAVYRAME”, the “soluble on expression in E. coli” value is given as “not soluble”.

In the case of “MAAWTPDLEAELSQLLKDWLKQQGRTQADLRRSLKAVSTRMPALLEVLEREHRLNGLSGLLARLCRVETEWHGGADHTSEAAEQSDPFGQLDLLLQEIRQDCPS”, the “soluble on expression in E. coli” value is given as “not soluble”.

For the sequence “MGSDKIHHHHHHMRVPPHNLEAEVAVLGSILIDPSVINDVLEILSHEDFYLKKHQHIFRAMEELYDEGKPVDVVSVCDKLQSMGKLEEVGGDLEVAQLAEAVPSSAHALHYAEIVKEKSILRKLIEISRKISESAYMEEDVEILLDNAEKMIFEISEMKTTKSYDHLRGIMHRVFENLENFRERANLIEPGVLITGLPTGFKSLDKQTTGFHSSDLVIIAARPSMGKTSFALSIARNMAVNFEIPVGIFSLEMSKEQLAQRLLSMESGVDLYSIRTGYLDQEKWERLTIAASKLYKAPIVVDDESLLDPRSLRAKARRMKKEYDVKAIFVDYLQLMHLKGRKESRQQEISEISRSLKLLARELDIVVIALSQLSRAVEQREDKRPRLSDLRESGAIEQDADTVIFIYREEYYRSKKSKEESKLHEPHEAEIIIGKQRNGPVGTITLIFDPRTVTFHEVDVVHS”, the “soluble on expression in E. coli” value is reported as “not soluble”.

On to “MAHHHHHHMSSSVVIVGDSICGGDGDQKLSTSHDEVYLRGFNTFAGNNPSDRALLHEGAGEVVAAISGHIEVTERVISVKGLLPRYQPEIGDVVVGRIVEVSGNKWHVDVNSTQTAIMLLSSVTEPGGILRRRGRGDELGMRQIFDQDDLVAAEVQRISPDGVMSLHTRAADKYGRLSGLGILVSVRPSLVKRAKHQFVELADYSTQLIIGMNGNIWICSVQPSTSDAEETEHATDARQNVARVANCIKALGAAQVQIHPASIEASVAASLDAGLSVFDVSLPKNRDALVARVADMVGMQHRRPTGGGACARTLV”, for which the “soluble on expression in E. coli” value is “not soluble”.

On to “MNTEKSEKCINVAPSGIRRMKKIHQMEIAQLFEYRRNCLGEKRTAVENVINAKVVAWNLAVVRRRHYFDLHGMTPQGAVDFVAQIVEGRRPGYIKLETGRGNHSKDNIPAIQNRLLQDFGNLSGFQIAIDPSNLGVLILSFQ”, for which the “soluble on expression in E. coli” value was “not soluble”.

In the case of “KHLFDEIDTIDVMDVNAGDHGKKFATNFDPETNMLEIQGDSFYWENGEWKQVPCHSRMLEFEFPNCGSHKVYSMAHDEVRSMKEFIPAKRIEFWMGFGDRYLNYFNVMRDIGLLSPDPLTLHDGTVVQPLHVLKALLPDP”, the “soluble on expression in E. coli” value is “not soluble”.

Turning to “MDNKVILVGGFHEIIELCEDNDIEIAGIIDNYLTNDTYWGYPIIGTDDKAKVLFETYKNVPVLITPDVPHVRYKLYHYYKSIGFQVASLISRDASISRSAIIGEGTIIQRGANLSSNIKIGQMVKVNTNANIMHDCLIGNYVTVAPNAVLLGKVEIDDKAYIGANATLLPSVKIGENVTVGAGSVVTKSVRPNTVVKGSPLEHHHHHH”, the “soluble on expression in E. coli” value is recorded as “soluble”.

Take “MSEPLDLNQLAQKIKQWGLELGFQQVGITDTDLSESEPKLQAWLDKQYHGEMDWMARHGMLRARPHELLPGTLRVISVRMNYLPANAAFASTLKNPKLGYVSRYALGRDYHKLLRNRLKKLGEMIQQHCVSLNFRPFVDSAPILERPLAEKAGLGWTGKHSLILNREAGSFFFLGELLVDIPLPVDQPVEEGCGKCVACMTICPTGAIVEPYTVDARRCISYLTIELEGAIPEELRPLMGNRIYGCDDCQLICPWNRYSQLTTEEDFSPRKPLHAPELIELFAWSEEKFLKVTEGSAIRRIGHLRWLRNIAVALGNAPWDETILTALESRKGEHPLLDEHIAWAIAQQIERRNACIVEVQLPKKQRLVRVIEKGLPRDA”: the “soluble on expression in E. coli” value is listed as “soluble”.

On to “MAKKKDEITIRSSAAEYLTYVASVGDQQDSIEMRYEDENIWLTQKMMATLYDVDVRTINEHIKKIYSDSELEEDSTIRNFRIVQTEGSRQVTRDTKHYNLQMIIAVGFKVNSERAVQFRKWVNQIAKDYTIKGWVMDDERLKRGTYLTEKYFDEQLERIREIRASERKFYQKITDLYATAIDYDKNAAMTRRFYSTVQNKMHYAVHGHTAAELIVERADHTKEHMGLTTWEDAPEGKIKKSDVTVAKNYLSQDEMKQLNRMVTAYLDFAENMTLRHIPLTMQDWEKRLNSFIEMFDYGILQDAGKVSAEIAKLHAETEFEKYRVIQDRLFMSDFDKFMLELEENTKK”, for which the “soluble on expression in E. coli” value was “not soluble”.

As to “MRPLTRLVPLALLLLAGCAGPLPQPDPQMAWVELRSAPANTLLAERLDGERLSDGRYFQVTPGRHVLEVRFQYELYGGSGGGGGGFGEPVQINCYQQVVYDGFEAGRRYRLEVRPQLRRALALLSDERGEVVARSNFQTSRCPPY”, the “soluble on expression in E. coli” value is listed as “not soluble”.

“GPGSMQKQHAPGRGLVLHSHKVKGQQQERNDSLVQCAQHPPLQKRVNPHPHSHSSKPIPNIFVVITGLVVNPRTGSFHDFRSPCFPPPRGGGKGRNAWGNRNGEKVEAALAALQIGIFGDQHHIAGKEACQVDKKPSCSFFLTWPHILPTRFQRKKKRKNY”: the “soluble on expression in E. coli” value was “not soluble”.

“MAKIAAIFQLLDKNVTVSSHRLELLSPARDAAIAREAILHGADAVYIGGPGFGARHNASNSLKDIAELVPFAHRYGAKIFVTLNTILHDDELEPAQRLITDLYQTGVDALIVQDMGILELDIPPIELHASTQCDIRTVEKAKFLSDVGFTQIVLARELNLDQIRAIHQATDATIEFFIHGALCVAYSGQCYISHAQTGRSANRGDCSQACRLPYTLKDDQGRVVSYEKHLLSMKDNDQTANLGALIDAGVRSFKIEGRYKDMSYVKNITAHYRQMLDAIIEERGDLARASSGRTEHFFVPSTEKTFHRGSTDYFVNARKGDIGAFDSPKFIGLPVGEVVKVAKDHLDVAVTEPLANGDGLNVLIKREVVGFRANTVEKTGENQYRVWPNEMPADLHKIRPHHPLNRNLDHNWQQALTKTSSERRVAVDIELGGWQEQLILTLTSEEGVSITHTLDGQFDEANNAEKAMNNLKDGLAKLGQTLYYARDVQINLPGALFVPNSLLNQFRREAADMLDAARLASYQRGSRKPVADPAPVYPQTHLSFLANVYNQKAREFYHRYGVQLIDAAYEAHEEKGEVPVMITKHCLRFAFNLCPKQAKGNIKSWKATPMQLVNGDEVLTLKFDCRPCEMHVIGKIKNHILKMPLPGSVVASVSPDELLKTLPKRKG”: the “soluble on expression in E. coli” value is “not soluble”.

Take “MAAAAAARKGGFWQRFAGKGVVQHCQSPTAPLPEACADMLWSNLGLLAAESIVPVLQNWARALKTDGLLFFTCFGRDTLAELKCRLKENGIESRSVMFPDMHDLGDMLAENGFYDPVTDTAKLVLDYKKAETFWADMDTLGIWRAMAWNDENAARSCVGTIFEREGGLGITLETVYGHAVKKLMLPQGENVVQFFPKRLEHHHHHH”: the “soluble on expression in E. coli” value is “soluble”.
